Test results taken from PMC4338043 (PLoS ONE, 2015).

Key:
[1] = target: the molecule itself; experiment: SEC
[2] = target: the molecule itself; experiment: AUC
[3] = target: the molecule itself; experiment: AUC; remark: listed apart in the source

Protein | stoichiometry N [1] | stoichiometry N [2] | stoichiometry N [3]
Burkholderia thailandensis inosine-5'-monophosphate dehydrogenase (enzyme, Burkholderia thailandensis strain E264, UniProt Q2SWW9 1-486, looked up, also called IMPDHbt; class II IMPDH) MRLIQKALTFDDVLLVPAFSDVLPRDTSLKTQLTRHISLNMPLVSAAMDTVTEGRLAIAMAQQGGVGIVHKNLTPVEQAREVAKVKRFESGVVRDPITVPPSMKVRDVIALSRQHGISGFPVLEGPKLVGIVTNRDLRFETRLDEPVKSIMTPRERLVTVAEGTPLAEAKALMHSHRLERVLVVNDAFELRGLMTVKDITKQTEHPEACKDEHGKLRVGAAVGVGADNEERVELLVQAGVDVIVVDTAHGHSKGVLERVRWVKQNFPKVEVIGGNIATAAAAKALVEYGADAVKVGIGPGSICTTRIVAGVGVPQISAIANVSDALRGTGVPCIADGGIRFSGDVSKALAAGANAVMMGSMFAGTEEAPGDVFLYQGRQYKSYRGMGSVGAMKDGAADRYFQDNSANIDKLVPEGIEGRVAYKGSVNAIIFQLIGGVRASMGYCGCKTIAEMHEKAEFVEITAAGMRESHVHDVQITKEAPNYHVD | ~4 | 4 | 8
Staphylococcus aureus inosine-5'-monophosphate dehydrogenase (enzyme, Staphylococcus aureus strain N315, UniProt P99106 1-488, looked up, also called IMPDHsa; class II IMPDH) MWESKFAKESLTFDDVLLIPAQSDILPKDVDLSVQLSDKVKLNIPVISAGMDTVTESKMAIAMARQGGLGVIHKNMGVEEQADEVQKVKRSENGVISNPFFLTPEESVYEAEALMGKYRISGVPIVDNKEDRNLVGILTNRDLRFIEDFSIKIVDVMTQENLITAPVNTTLEEAEKILQKHKIEKLPLVKDGRLEGLITIKDIEKVIEFPNAAKDEHGRLLVAAAIGISKDTDIRAQKLVEAGVDVLVIDTAHGHSKGVIDQVKHIKKTYPEITLVAGNVATAEATKDLFEAGADIVKVGIGPGSICTTRVVAGVGVPQITAIYDCATEARKHGKAIIADGGIKFSGDIIKALAAGGHAVMLGSLLAGTEESPGATEIFQGRQYKVYRGMGSLGAMEKGSNDRYFQEDKAPKKFVPEGIEGRTAYKGALQDTIYQLMGGVRAGMGYTGSHDLRELREEAQFTRMGPAGLAESHPHNIQITKESPNYSF | ~4 | 4 | 8
Neisseria meningitidis inosine-5'-monophosphate dehydrogenase (enzyme, Neisseria meningitidis strain FAM18, UniProt Q9JZB5 1-487, looked up, also called IMPDHnm; class I IMPDH) MRIVEKAYTFDDVLLVPAHSTVLPRDVKLQTKLTREITLNLPLLSAAMDTVTEARLAISMAQEGGIGIIHKNMPPEMQARAVSKVKRHESGVVKDPVTVAPTTLIREVLEMRAQRKRKMSGLPVVENGKVVGIVTNRDLRFENRVDLPVSAIMTPRERLVTVPEGTSIDEARELMHTHKVERVLVLNEKDELKGLITVKDILKTTEFPNANKDSEGRLRVGAAVGTGGDTEERVKALVEAGVDVIVVDTAHGHSQGVIDRVRWVKETYPHIQVIGGNIATAKAALDLVAAGADAVKVGIGPGSICTTRIVAGVGVPQLTAIHNVAEALKGTGVPLIADGGIRFSGDIAKALAAGAYSVMLGGMFAGTEEAPGEIELYQGRSYKSYRGMGSLGAMSQGSADRYFQDKTDSTDKYVPEGIEGRVPYKGPIVNIIHQLTGGLRSSMGYLGCANIAEMHEKAEFVEITSAGMSESHVHDVQITKEAPNYHR | ~8 | 8 | 
Legionella pneumophila subsp. pneumophila inosine-5'-monophosphate dehydrogenase (enzyme, also called IMPDHlpp; class I IMPDH) MPLSIVQQSLTFDDVLLVPAHSTILPKDVSLKTKLTRAIHLNMPLISAAMDTVTEARLAIALAQEGGLGIIHKNMSIADQAEEVRRVKKFESGMVKDPISVTPDLTVKELLAVMTKYNFSGVPVVDGKHLVGIVTSRDIRFETNMNLTVAQVMTPKGRLVTVKEGASREEVRSLLHKHRIEKLLVVNENFELRGLITVKDIQKAKDNPYACKDSFEQLRVGAAVGVGEGTDERVAALVESGVDVIVVDTAHGHSQGVLNRVKWIKKNYPDVQVIGGNIATAAAARDLYEAGADAVKVGIGPGSICTTRIVTGVGIPQISAIANVAQELKGIIPVIADGGIRFSGDVCKALAAGADTVMLGSMFAGTEESPGEIELYQGRTYKNYRGMGSIGAMSLAQGSSDRYFQDASLGTEKLVPEGIEGRVPYKGPVQTIIHQLLGGLRSCMGYTGCATIEELHSKTEFVQVTNAGMRESHVHDVSITKQAPNYQVDN | ~8 | 8 | 
Pseudomonas aeruginosa inosine-5'-monophosphate dehydrogenase (enzyme, UniProt Q9HXM5 1-489, looked up, also called IMPDHpa; class I IMPDH) MLRISQEALTFDDVLLIPGYSEVLPKDVSLKTRLTRGIELNIPLVSAAMDTVTEARLAIAMAQEGGIGIIHKNMGIEQQAAEVRKVKKHETAIVRDPVTVTPSTKIIELLQMAREYGFSGFPVVEQGELVGIVTGRDLRVKPNAGDTVAAIMTPKDKLVTAREGTPLEEMKAKLYENRIEKMLVVDENFYLRGLVTFRDIEKAKTYPLASKDEQGRLRVGAAVGTGADTGERVAALVAAGVDVVVVDTAHGHSKGVIERVRWVKQTFPDVQVIGGNIATAEAAKALAEAGADAVKVGIGPGSICTTRIVAGVGVPQISAIANVAAALEGTGVPLIADGGIRFSGDLAKAMVAGAYCVMMGSMFAGTEEAPGEIELFQGRSYKSYRGMGSLGAMSGSQGSSDRYFQDASAGAEKLVPEGIEGRVPYKGALSAIVHQLMGGLRAAMGYTGSADIQQMRTQPQFVRITGAGMAESHVHDVQITKEAPNYRVG | ~8 |  | 8
